Tests used:
[1] = system: human neuroblastoma cell line SH-SY5Y; assay: In vitro cytotoxicity assay (LDH), SH-SY5Y; format: cell-based; conditions: 1:1 effector to target ratio, FIG. 8B
Summary of the method: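 Lentivirus-transduced CAR T cells (polybrene, 300 IU/mL IL-2), harvested day 5–10 post-transduction, co-cultured with target cells at E:T 10:1 to 0.2:1 for 20 h. LDH release in supernatant read at OD492/650 nm; % target lysis calculated after subtracting effector-alone and target-alone baselines, normalised to 1% Triton-X100 maximum versus spontaneous release.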

IMR-32 = assay: IFNγ release in co-culture with IMR-32; format: cell-based, human; conditions: Example 7, co-culture with IMR-32, FIG. 8D-8F
Text: (§1) In addition to the cytotoxicity data above, supernatants from the in vitro co-culture assays were also collected to assess CAR T cells-induced cytokine release, e.g., release of interferon gamma (i.e., IFNγ), as another indicator of cytotoxicity, was quantified using a HTRF human IFNγ AlphaLISA kit (Perkin Elmer, #62HIFNGPEH) per manufacturer's instruction. […] No significant cytokine release were detected against GPC2-negative cell line A-431.
(§2) Supernatants from the in vitro co-culture assays were collected to assess CAR T cells-induced cytokine release, e.g., interferon gamma (i.e., IFNγ) release as described in Example 6. […] IFNγ was not induced in GPC2-negative A-431 cells. […] Cytokine release data was consistent with the in vitro cytotoxicity data.

SH-SY5Y = assay: IFNγ release in co-culture with SH-SY5Y; format: cell-based, human; conditions: Example 7, co-culture with SH-SY5Y, FIG. 8D-8F
Text: as §1, §2

[2] = system: human neuroblastoma cell line IMR-32; assay: In vitro cytotoxicity assay (LDH), IMR-32; format: cell-based; conditions: 1:1 effector to target ratio, FIG. 8B
Procedure: The pre-activated T cells were transduced with lentivirus stock in the presence of […] polybrene and 300 IU/mL IL-2. T cells and lentivirus were centrifuged at 1000 g, 32° C. for 1 h and placed in humidified cell culture incubator for transgene expression under suitable conditions. On day 5 or day 7 or day 10 post-transduction, transduced T cells were harvested and co-incubated with tumor cells at an effector (CAR T) to target cell ratio of 10:1 or 5:1 or 2:1 or 1:1 or 0.2:1 for 20 hours. Target cells were human neuroblastoma cell line SH-SY5Y (ATCC, #CRL-2266), human neuroblastoma cell line IMR-32 cells (ATCC, #CCL-127), or human epidermoid carcinoma cell line A-431 (ATCC, #CRL-1555). To assay the cytotoxicity of CAR T cells on tumor cells, the Cytotoxicity Detection Kit (LDH) (Roche, #11644793001) assay reagents were prepared according to manufacturer's protocol. Reaction mix was added to the cell-free supernatant of each sample to detect the LDH released from cells. Optical densities at OD492 nm and OD650 nm were measured by PHERStar Microplate Reader. Baseline LDH released from the target cell in the absence of effector cells and effector cell in the absence of target cells were subtracted from the total LDH amount. The target maximum release was obtained by adding Triton-X100 at a final concentration of 1% to target cells in the absence of effector cells at the time when the cytotoxicity assays initiated. […] The specific cytotoxicity was calculated by the formula: % Target cell lysis=100*[(OD CAR T cell+Target cell)−(OD CAR T cell)−(OD Target cell)+(OD Buffer background)]/(OD Target Maximum release−OD Target Minimum release).
On day 5 or day 8 or day 10 post-transduction, transduced T cells were harvested and co-incubated with tumor cells at an effector (CAR T) to target cell ratio of 10:1 or 1:1 or 0.2:1 for 20 hours. To assay the cytotoxicity of CAR T cells on tumor cells, the Cytotoxicity Detection Kit (LDH) (Roche, #11644793001) was added to the culture supernatant and the specific cytotoxicity for each CAR T cell construct was measured as described in Example 6.

B1: CAS71529VH5-BBz: humanized VHH anti-GPC2 CAR (4-1BB, CD3ζ), SEQ ID NO: 222; tested as CAR T cells (protein)
chain: MALPVTALLLPLALLLHAARPEVQLVESGGGLVQPGGSLRLSCAVSEYRYSSRYCMGWFRQAPGKGLEGVSAIDSNGSADYVDSVKGRFTISKDNSKNTLYLQMNSLRAEDTAVYYCAADHLAYDCYSGATSVFRYWGQGTLVTVSSTTTPAPRPPTPAPTIASQPLSLRPEACRPAAGGAVHTRGLDFACDIYIWAPLAGTCGVLLLSLVITLYCKRGRKKLLYIFKQPFMRPVQTTQEEDGCSCRFPEEEEGGCELRVKFSRSADAPAYKQGQNQLYNELNLGRREEYDVLDKRRGRDPEMGGKPRRKNPQEGLYNELQKDKMAEAYSEIGMKGERRRGKGHDGLYQGLSTATKDTYDALHMQALPPR
modifications: expressed in CAR T cells; CAS71529VH5-BBz
In the case of B1, the “cytotoxicity against SH-SY5Y” value [1] is reported as “less than 30%”, the IFNγ release (IMR-32) is reported as “high levels of IFNγ” and the IFNγ release (SH-SY5Y) is reported as “high levels of IFNγ”. For the same molecule, the “cytotoxicity against IMR-32” value [2] was “less than 30%”.

From US12606635B2, “Glypican-2-binding moieties, chimeric antigen receptors and uses thereof” (Nanjing Legend Biotech Co., Ltd., priority 2020, dated 2026)
